Laboratory results from patent US20120039865A1, “IDENTIFICATION OF SORTILIN AS A NEURONAL RECEPTOR FOR THE FRONTOTEMPORAL DEMENTIA PROTEIN, PROGRANULIN” (Yale University, priority 2008, published 2012).
pKd: −log10 of the molar value.

Key:
[1] = molecular target: T1, sortilin-1 (Sort1; PGRN-R) (Mus musculus, UniProt Q6PHU5); test: AP-PGRN binding to COS-7 cells transfected with Sort1 cDNA
T1 construct: host or cells: COS-7 (ATCC No. CRL-1651)
T1 sequence (Q6PHU5 74-825): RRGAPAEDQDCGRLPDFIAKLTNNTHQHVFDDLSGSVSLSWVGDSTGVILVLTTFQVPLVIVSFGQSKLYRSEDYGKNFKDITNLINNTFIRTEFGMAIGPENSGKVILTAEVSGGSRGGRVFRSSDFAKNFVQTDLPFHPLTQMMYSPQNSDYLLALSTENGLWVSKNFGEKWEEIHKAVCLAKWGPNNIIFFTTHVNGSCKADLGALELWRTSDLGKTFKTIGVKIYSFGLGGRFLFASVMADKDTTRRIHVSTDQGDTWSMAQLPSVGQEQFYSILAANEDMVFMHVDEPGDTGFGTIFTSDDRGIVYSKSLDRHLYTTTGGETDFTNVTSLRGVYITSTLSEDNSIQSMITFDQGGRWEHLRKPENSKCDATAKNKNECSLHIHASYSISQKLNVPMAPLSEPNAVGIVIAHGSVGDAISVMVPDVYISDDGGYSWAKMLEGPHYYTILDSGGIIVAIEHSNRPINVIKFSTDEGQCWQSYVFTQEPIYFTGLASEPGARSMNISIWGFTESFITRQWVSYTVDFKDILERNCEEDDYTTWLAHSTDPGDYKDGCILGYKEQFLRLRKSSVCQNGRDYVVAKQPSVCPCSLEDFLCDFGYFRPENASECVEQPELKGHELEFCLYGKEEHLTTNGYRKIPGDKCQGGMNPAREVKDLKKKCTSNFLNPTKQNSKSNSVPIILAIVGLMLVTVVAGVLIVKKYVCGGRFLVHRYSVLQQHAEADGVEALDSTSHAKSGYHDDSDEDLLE
Protocol: (§1) Rat (Sprague-Dawley) cortical neurons were isolated from E18 embryos and cultured in vitro for 3-21 days. Cultures were maintained in Neurobasal-A medium supplemented with B27, GLUTAMAX™ (2 mM), sodium pyruvate (1 mM), penicillin, and streptomycin. The binding of 10 nM AP-PGRN or 10 nM AP was detected as a dark reaction product produced by alkaline phosphatase (AP). Binding was measured as follows. The AP tagged ligand (in NBA) was incubated with the cortical neurons for 1 hr at 4° C., washed three times with HBH buffer, fixed with formaldehyde, and after washing again with HBH the neurons were incubated in a 67° C. oven to inactivate the endogenous AP. The tagged AP was then visualized using AP substrate 5-bromo-4-chloro-3-indolyl phosphate/nitro blue tetrazolium, which results in a dark precipitate. […] The addition of 100 nM Flag-PGRN displaced 10 nM AP-PGRN (FIG. 1C, middle panel).
To determine the molecular nature of the neuronal binding site of PGRN, expression cloning experiments utilizing AP-PGRN as a tagged ligand were conducted. COS-7 (ATCC No. CRL-1651) cells were transfected with expression vectors containing mouse cDNAs using FUGENE® 6 according to manufacturer's specifications (Roche). […]

[2] = system: mouse E17 cortical neurons; test: AP-PGRN binding to mouse cortical neurons (wild type, sortilin +/- and -/-)
Protocol: as §1
Binding was measured according to the methods described above by preincubating 100 nM PGRN with the cortical neurons for 1 hr and using a 5 nM AP-PGRN and 100 nM untagged PGRN mixture. […]
Gene-targeted sortilin −/− and +/− mice from Anders Nykjaer, M.D., Ph.D., Aarhus University, Aarhus, Denmark, were used to obtain cultures of cortical neurons. The binding of 2 nM AP-PGRN to cortical neurons isolated from sortilin −/− (FIG. 3B, left panel) and +/− (FIG. 3B, right panel) mice was evaluated. […]

SorCS1 = molecular target: T2, SorCS1 (Mus musculus, UniProt Q9JLC4); test: AP-PGRN binding to COS-7 cells expressing SorCS1; settings: 120 nM AP-PGRN
T2 construct: host or cells: COS-7
T2 sequence (Q9JLC4 34-1167): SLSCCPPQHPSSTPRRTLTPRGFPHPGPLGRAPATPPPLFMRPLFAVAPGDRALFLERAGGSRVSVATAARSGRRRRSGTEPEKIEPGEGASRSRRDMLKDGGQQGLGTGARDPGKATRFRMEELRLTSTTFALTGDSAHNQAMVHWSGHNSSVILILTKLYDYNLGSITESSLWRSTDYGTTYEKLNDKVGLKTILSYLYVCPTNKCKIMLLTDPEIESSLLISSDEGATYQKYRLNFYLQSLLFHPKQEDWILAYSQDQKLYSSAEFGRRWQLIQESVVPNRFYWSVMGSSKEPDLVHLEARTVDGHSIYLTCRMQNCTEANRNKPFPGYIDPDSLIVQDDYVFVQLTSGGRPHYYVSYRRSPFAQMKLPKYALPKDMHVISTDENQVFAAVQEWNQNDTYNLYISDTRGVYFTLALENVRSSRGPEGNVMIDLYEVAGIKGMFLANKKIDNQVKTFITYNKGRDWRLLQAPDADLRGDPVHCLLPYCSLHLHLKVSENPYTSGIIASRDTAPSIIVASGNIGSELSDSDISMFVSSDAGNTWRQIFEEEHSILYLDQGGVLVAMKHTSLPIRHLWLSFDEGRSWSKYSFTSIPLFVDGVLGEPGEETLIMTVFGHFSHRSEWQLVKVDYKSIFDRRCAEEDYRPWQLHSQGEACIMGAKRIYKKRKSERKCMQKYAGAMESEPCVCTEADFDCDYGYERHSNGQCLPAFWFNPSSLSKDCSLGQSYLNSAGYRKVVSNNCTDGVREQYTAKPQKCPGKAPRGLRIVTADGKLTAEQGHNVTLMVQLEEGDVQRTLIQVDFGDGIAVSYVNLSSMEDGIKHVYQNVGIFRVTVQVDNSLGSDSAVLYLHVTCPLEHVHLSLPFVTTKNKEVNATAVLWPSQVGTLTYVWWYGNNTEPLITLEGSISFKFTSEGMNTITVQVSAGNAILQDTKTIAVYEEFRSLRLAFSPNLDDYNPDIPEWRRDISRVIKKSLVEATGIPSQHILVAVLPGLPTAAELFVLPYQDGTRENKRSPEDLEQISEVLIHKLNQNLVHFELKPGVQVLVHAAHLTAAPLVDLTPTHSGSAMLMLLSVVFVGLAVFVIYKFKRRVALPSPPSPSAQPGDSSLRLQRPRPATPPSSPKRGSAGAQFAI
Source text: (§2) The human SorLA expression vector was provided by Anders Nykjaer, M.D., Ph.D., Aarhus University, Aarhus, Denmark (Jacobsen, L., et al., J. Biol. Chem. 276:22788-22796 (2001); Gliemann, J., et al., Biochem J. 381:203-212 (2004); GenBank Accession No. U60975), and the mouse SorCS1 expression vector in pCMV-Sport6 was obtained from Open Biosystems (GenBank Accession No. BC007486). […] A fragment of PGRN, termed PGRN-E in the literature, binds to sortilin with the same affinity as does full length PGRN (data not shown).

[3] = system: Rat (Sprague-Dawley) cortical neurons; test: AP-tagged ligand binding to cultured rat cortical neurons
Protocol: as §1

[4] = system: COS-7 cells transfected with empty vector; test: AP-PGRN binding to COS-7 cells transfected with empty vector; settings: 20 nM AP-PGRN
Protocol: To determine the molecular nature of the neuronal binding site of PGRN, expression cloning experiments utilizing AP-PGRN as a tagged ligand were conducted. COS-7 (ATCC No. CRL-1651) cells were transfected with expression vectors containing mouse cDNAs using FUGENE® 6 according to manufacturer's specifications (Roche). An arrayed adult mouse brain cDNA library (OriGene) of 225,000 clones was screened in pools of 5,000 at a time, as well as a library consisting of 352 individual preparations of cDNAs encoding transmembrane proteins (GFC-transfection array panel, OriGene). The COS-7 cells that specifically bound AP-PGRN (5 nM) contained a single cDNA clone, which encoded a single-pass, membrane-spanning surface glycoprotein that supports high affinity AP-PGRN binding (FIG. 2A, upper-right panel). […] As in mouse cortical neurons, binding of 5 nM AP-PGRN to Sort-1 (PGRN-R) in COS-7 cells was displaceable by excess untagged PGRN (100 nM) and was saturable, with an apparent Kd of 6 nM (FIG. 2A, lower-right panel, and 2B). The binding affinity of AP-PRGN measured for Sort1-transfected COS-7 cells and for neurons was indistinguishable, with a Kd of 5-10 nM (FIG. 2B, 6 nM, and data not shown). In both cases, unlabeled 100 nM PGRN displaced binding (FIG. 2A, lower-right panel, and FIG. 3A, right panel).

SorLA = molecular target: T3, SorLA (Homo sapiens, UniProt Q92673); test: AP-PGRN binding to COS-7 cells expressing SorLA; settings: 120 nM AP-PGRN
T3 construct: host or cells: COS-7
T3 sequence (Q92673 82-2214): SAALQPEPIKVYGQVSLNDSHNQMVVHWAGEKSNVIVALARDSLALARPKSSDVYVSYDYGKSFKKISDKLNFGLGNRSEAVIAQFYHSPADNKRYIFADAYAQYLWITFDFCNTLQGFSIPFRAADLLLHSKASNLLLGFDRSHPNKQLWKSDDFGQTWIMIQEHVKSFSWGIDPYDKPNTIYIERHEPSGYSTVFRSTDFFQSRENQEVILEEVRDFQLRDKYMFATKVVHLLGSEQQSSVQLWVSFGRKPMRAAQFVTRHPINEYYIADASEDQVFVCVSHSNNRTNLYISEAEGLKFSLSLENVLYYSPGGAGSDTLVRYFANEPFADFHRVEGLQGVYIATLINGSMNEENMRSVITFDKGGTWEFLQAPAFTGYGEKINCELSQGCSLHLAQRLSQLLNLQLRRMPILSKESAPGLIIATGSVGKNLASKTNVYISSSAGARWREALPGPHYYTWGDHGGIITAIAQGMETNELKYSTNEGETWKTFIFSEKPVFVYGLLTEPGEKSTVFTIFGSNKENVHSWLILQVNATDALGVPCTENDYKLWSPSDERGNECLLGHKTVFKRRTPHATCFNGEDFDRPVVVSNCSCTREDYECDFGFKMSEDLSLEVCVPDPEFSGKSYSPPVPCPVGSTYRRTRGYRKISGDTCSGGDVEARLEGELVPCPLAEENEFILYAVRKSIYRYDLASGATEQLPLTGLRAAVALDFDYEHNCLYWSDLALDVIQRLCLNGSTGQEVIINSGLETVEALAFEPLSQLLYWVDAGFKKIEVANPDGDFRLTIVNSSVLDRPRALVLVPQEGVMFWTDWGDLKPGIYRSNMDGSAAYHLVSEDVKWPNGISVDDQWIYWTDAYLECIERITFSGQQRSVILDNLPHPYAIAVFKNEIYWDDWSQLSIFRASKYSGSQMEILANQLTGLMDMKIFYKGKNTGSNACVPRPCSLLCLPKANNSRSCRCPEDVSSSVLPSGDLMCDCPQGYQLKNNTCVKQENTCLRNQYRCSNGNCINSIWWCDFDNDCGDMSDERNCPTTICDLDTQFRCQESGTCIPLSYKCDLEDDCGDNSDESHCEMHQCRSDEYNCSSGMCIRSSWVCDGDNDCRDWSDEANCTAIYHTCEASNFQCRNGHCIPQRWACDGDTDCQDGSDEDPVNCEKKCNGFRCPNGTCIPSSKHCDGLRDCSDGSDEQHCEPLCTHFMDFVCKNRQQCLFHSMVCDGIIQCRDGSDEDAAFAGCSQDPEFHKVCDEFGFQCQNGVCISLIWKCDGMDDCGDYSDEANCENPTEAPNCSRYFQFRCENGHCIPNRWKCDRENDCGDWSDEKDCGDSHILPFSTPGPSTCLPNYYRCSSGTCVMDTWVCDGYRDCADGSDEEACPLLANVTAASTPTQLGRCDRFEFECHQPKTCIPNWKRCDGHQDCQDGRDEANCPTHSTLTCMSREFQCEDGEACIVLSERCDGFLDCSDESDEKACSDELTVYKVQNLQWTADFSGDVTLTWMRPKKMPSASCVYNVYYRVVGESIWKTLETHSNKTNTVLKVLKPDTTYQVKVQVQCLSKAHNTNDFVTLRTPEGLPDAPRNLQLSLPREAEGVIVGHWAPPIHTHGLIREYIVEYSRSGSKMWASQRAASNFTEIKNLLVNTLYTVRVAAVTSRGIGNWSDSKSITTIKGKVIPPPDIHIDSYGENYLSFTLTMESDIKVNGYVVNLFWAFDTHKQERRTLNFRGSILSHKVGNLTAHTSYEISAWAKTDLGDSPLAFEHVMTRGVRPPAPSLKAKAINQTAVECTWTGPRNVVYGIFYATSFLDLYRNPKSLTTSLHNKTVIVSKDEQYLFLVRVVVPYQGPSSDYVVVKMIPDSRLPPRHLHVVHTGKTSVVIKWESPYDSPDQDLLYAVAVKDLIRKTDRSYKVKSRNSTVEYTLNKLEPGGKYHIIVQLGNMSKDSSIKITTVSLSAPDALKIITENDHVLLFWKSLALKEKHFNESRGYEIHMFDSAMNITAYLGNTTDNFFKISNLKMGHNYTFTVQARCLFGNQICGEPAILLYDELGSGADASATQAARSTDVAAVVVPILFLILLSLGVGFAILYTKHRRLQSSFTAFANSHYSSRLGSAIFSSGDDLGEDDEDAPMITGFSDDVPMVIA
Source text: as §2

[5] = molecular target: T4, purified ectodomain of Sort1 (amino acids 60-725 of the human sequence) (Homo sapiens, UniProt Q99523); test: Physical complex of purified proteins isolated by affinity chromatography; assay type: binding; settings: data not shown
T4 sequence (Q99523 60-725): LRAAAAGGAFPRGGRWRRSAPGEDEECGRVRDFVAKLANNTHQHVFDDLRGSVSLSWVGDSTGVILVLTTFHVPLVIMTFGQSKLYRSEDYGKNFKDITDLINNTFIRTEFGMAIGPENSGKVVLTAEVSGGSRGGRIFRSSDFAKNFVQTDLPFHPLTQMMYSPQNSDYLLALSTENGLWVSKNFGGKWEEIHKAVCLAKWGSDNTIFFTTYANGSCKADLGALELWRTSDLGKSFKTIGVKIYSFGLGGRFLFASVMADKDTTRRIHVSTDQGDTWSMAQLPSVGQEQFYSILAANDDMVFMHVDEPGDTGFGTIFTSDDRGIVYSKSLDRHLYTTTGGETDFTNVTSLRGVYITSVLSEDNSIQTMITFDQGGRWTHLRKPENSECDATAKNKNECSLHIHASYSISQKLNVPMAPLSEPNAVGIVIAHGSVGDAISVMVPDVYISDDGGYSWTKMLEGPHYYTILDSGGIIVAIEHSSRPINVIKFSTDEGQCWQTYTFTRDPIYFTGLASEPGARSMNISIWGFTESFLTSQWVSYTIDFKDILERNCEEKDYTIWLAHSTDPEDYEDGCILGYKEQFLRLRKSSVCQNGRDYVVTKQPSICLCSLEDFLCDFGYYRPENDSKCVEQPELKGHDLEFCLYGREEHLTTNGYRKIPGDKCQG

binding to Sort1-transfected COS-7 cells ([1]; 20 nM ligand) | pKd ([1]; read-out: binding affinity Kd for Sort1-transfected COS-7 cells) | AP-PGRN binding in sortilin -/- cortical neurons ([2]; 2 nM AP-PGRN, neurons from sortilin -/- vs +/- mice) | pKd ([2]; neurons, species not stated, data not shown, read-out: binding affinity Kd for neurons) | affinity for SorCS1 (SorCS1) | binding to cultured cortical neurons (dark AP reaction product) ([3]; 10 nM AP-tagged ligand, 1 hr at 4° C.) | affinity for SorLA (SorLA) | displacement of AP-PGRN binding ([3]; 100 nM competitor against 10 nM AP-PGRN) | complex formation with Sort1 ectodomain [5] | Substance | binding to empty-vector COS-7 cells [4]
bound | 8.00 to 8.30 | 30 % of control values | 8.00 to 8.30 | no affinity | specifically and discreetly bound | no affinity |  |  | AP-PGRN: alkaline-phosphatase (AP) tagged human progranulin fusion protein produced in HEK293T cells | did not bind
 |  |  |  |  |  |  | displaced | formed a physical complex | Flag-PGRN: FLAG-tagged PGRN produced by HEK293T cell transfection, purified by anti-FLAG affinity gel | 
